Molecular target: H1 HA (recombinant HA of Figure 4E) (Influenza A virus, H1 subtype; strain …, UniProt A0A1J0CXU0)
Experiment: BLI

B1: mAb 789-203-3C12 (IgG) (antibody, V domains shown)
VH: QVQLQESGPGLVKPSEILSLTCAVSGGSFSSYCWGWIRQPPGKGLEWIGSICGSGGSNYLNPSLKSRVTLSVDTSKNQFSLILNSVTAADTAVYYCAREGITIFGVVIPRVLDSWGQGAVVTVSS
VL: DIQMTQSPSSLSASVGDTVTITCRASQSISSWLAWYQQKPGKAPNLLIYRASTLQSGVPSRFSGSGSGTDFTLTISSLQSEDFATYFCQQSTSSPFTFGPGTKLDIK
  binding result: binds
